Test results published in patent US20120039908A1 (TRANSTECH PHARMA, published 2012).
“And” between values parts separate entries of the source, which are not always exact repeats. Identical values can stand only once.

T1: S100b protein (Cat. No. 559290, Calbiochem)
T1 construct: Coated on the ELISA plate at 20 µg/mL in TBS pH 8.0 with 5 mM CaCl2; also called RAGE ligand S100b
T1 sequence (P04271 2-92, species assumed, looked up): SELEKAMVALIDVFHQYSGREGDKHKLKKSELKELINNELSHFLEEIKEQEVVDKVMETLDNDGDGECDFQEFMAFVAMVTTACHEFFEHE


How the values were obtained:
[1] = target: T1, S100b protein (Cat. No. 559290, …); assay: ELISA, S100b coated on plate; reference S1 control
Procedure: (§1) S100b binding ELISA: An ELISA assay plate was coated with 100 μL/well of 20 μg/mL S100b protein (Cat. No. 559290, Calbiochem, Gibbstown, N.J.) in coating buffer (Tris buffered saline [TBS], pH8.0, with 5 mM CaCl₂) overnight at 4° C. The plate was then washed three times with blocking buffer (TBS pH8.0, with 5 mM CaCl₂, 0.05% Tween20, and 1% bovine serum albumin [BSA]), and blocked with the blocking buffer for 1-1.5 hr. sRAGE-Ig fusion samples were prepared in a separate dilution plate, the highest concentration was 10 μg/mL in blocking buffer, with 1:4 serial dilution in blocking buffer down to 2.4 ng/mL. After blocking, the assay plate was washed with the blocking buffer and 100 μL of the samples were transferred from the dilution plate to the assay plate. The assay plate was incubated at room temperature for 2.5 hr. The assay plate was then washed three times with the blocking buffer, with 1 min soaking time between the washes. The horseradish peroxidase conjugated goat anti-human IgG (Cat. No. A2290, Sigma, St. Louis, Mo.) was added to the plate with 100 μL/well at 1:2500 dilution in the blocking buffer. The plate was incubated for 1 hr at room temperature. The assay plate was then washed three times with the blocking buffer again, and 100 μL 3,3′,5,5′-tetramethylbenzidine (TMB; Cat. No. 34022, Pierce, Rockford, Ill.) was added to each well and the plate was incubated for 8 minutes at room temperature. 100 μL of 1M H₂SO₄ was then added to each well, the plate was shaken and read at 450 nm on a microplate reader.

[2] = target: T2, Abeta (human Aβ peptide; Aβ1-40 or Aβ1-28, Table 5 does not say which) (human, UniProt P05067 672-711); assay: ELISA, Abeta peptide coated on plate; reference S1 control
T2 construct: Coated on the ELISA plate at 20 µg/mL in 1% NH4OH; also called A-beta peptide; amyloid beta
T2 sequence (P05067 672-711 limits assumed): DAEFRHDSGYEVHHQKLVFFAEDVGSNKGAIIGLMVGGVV
Procedure: (§2) Assay for A3 peptide binding activities: Briefly, two human Aβ peptides were tested: Aβ1-40 (Catalogue# A-1153-2, Rpeptide), and Aβ1-28 (Catalogue#24232, AnaSpec). The plates were coated by 20 μg/mL peptide in 1% NH₄OH overnight at 4° C. The plate was then washed with blocking buffer (TBS pH8.0, 0.05% Tween20, and 1% BSA) and blocked for 1 hr at room temperature. All the other steps were performed essentially as described previously herein for S100b binding assay, supra.

[3] = target: T1, S100b protein (Cat. No. 559290, …); assay: ELISA, S100b coated on plate, sRAGE-Ig titrated, anti-human IgG-HRP
Procedure: as §1

[4] = target: T2, Abeta (human Aβ peptide; Aβ1-40 or …); assay: ELISA, Abeta peptide coated on plate, sRAGE-Ig titrated, anti-human IgG-HRP
Procedure: as §2

[5] = target: T1, S100b protein (Cat. No. 559290, …); assay: ELISA, S100b coated on plate; reference S1
Procedure: as §1, with “The assay plate was then washed three times with the blocking buffer again, and 100 μL 3,3′,5,5′-tetramethylbenzidine (TMB; Cat. No. 34022, Pierce, Rockford, Ill.) was added to each well and the plate was incubated for 8 minutes at room temperature.” left out

[6] = target: T2, Abeta (human Aβ peptide; Aβ1-40 or …); assay: ELISA, Abeta peptide coated on plate; reference S1
Procedure: as §2

[7] = target: T1, S100b protein (Cat. No. 559290, …); assay: ELISA, S100b coated on plate; reference S1F1
Procedure: as §1, with “The assay plate was then washed three times with the blocking buffer again, and 100 μL 3,3′,5,5′-tetramethylbenzidine (TMB; Cat. No. 34022, Pierce, Rockford, Ill.) was added to each well and the plate was incubated for 8 minutes at room temperature.” left out

[8] = target: T2, Abeta (human Aβ peptide; Aβ1-40 or …); assay: ELISA, Abeta peptide coated on plate; reference S2F1
Procedure: as §2

Relative binding compared to control [1] [%]	Relative binding compared to control [2] [%]	IC50 [3]	IC50 [4] [nM]	fold binding relative to sample S1 [5] [fold]	fold binding relative to sample S1 [6] [fold]	fold increase in binding compared to S1 control [5] [fold]	fold increase in binding compared to 3-glycan S1F1 [7] [fold]	fold increase in binding compared to S1 control [6] [fold]	fold increase in binding compared to 3-glycan S2F1 [8] [fold]	Binder
100	100	0.18 µg/mL and 1.8 nM	1.24							sRAGE-Ig fusion protein, sample S1 (control, from untreated CHO cells, unfractionated) (Fc fusion, N-terminal Gln1 cyclized to pyroglutamic acid (pE1); N-linked glycan sites N2, N58, N288 (numbering without the signal): mixture 3-Glycan = 67%, 2-Glycan = 22%, Mostly a non-covalent homodimer (about 78%), with about 19% heterodimer with a furin-cleaved Fc fragment; C-terminal Lys438 partly clipped; also called S1 = control (untreated); sRAGE-Fc) QNITARIGEPLVLKCKGAPKKPPQRLEWKLNTGRTEAWKVLSPQGGGPWDSVARVLPNGSLFLPAVGIQDEGIFRCQAMNRNGKETKSNYRVRVYQIPGKPEIVDSASELTAGVPNKVGTCVSEGSYPAGTLSWHLDGKPLVPNEKGVSVKEQTRRHPETGLFTLQSELMVTPAPGGDPRPTFSCSFSPGLPRHRALRTAPIQPRVWEPVPLEEVQLVVEPEGGAVAPPSVFLFPPKPKDTLMISRTPEVTCVVVDVSHEDPEVKFNWYVDGVEVHNAKTKPREEQYNSTYRVVSVLTVLHQDWLNGKEYKCKVSNKALPAPIEKTISKAKGQPREPQVYTLPPSRDELTKNQVSLTCLVKGFYPSDIAVEWESNGQPENNYKTTPPVLDSDGPFFLYSKLTVDKSRWQQGNVFSCSVMHEALHNHYTQKSLSLSPGK
		0.1 µg/mL and 1 nM	0.52							sRAGE-Ig fusion protein, sample 2 fraction 2 (S2F2), 2-glycan species from tunicamycin treated CHO cells (Fc fusion, pE1; two of the three N-linked sites (N2, N58, N288) occupied; the filing cannot tell which, RP-HPLC fraction; also called 2-Glycan only; doubly occupied variant) QNITARIGEPLVLKCKGAPKKPPQRLEWKLNTGRTEAWKVLSPQGGGPWDSVARVLPNGSLFLPAVGIQDEGIFRCQAMNRNGKETKSNYRVRVYQIPGKPEIVDSASELTAGVPNKVGTCVSEGSYPAGTLSWHLDGKPLVPNEKGVSVKEQTRRHPETGLFTLQSELMVTPAPGGDPRPTFSCSFSPGLPRHRALRTAPIQPRVWEPVPLEEVQLVVEPEGGAVAPPSVFLFPPKPKDTLMISRTPEVTCVVVDVSHEDPEVKFNWYVDGVEVHNAKTKPREEQYNSTYRVVSVLTVLHQDWLNGKEYKCKVSNKALPAPIEKTISKAKGQPREPQVYTLPPSRDELTKNQVSLTCLVKGFYPSDIAVEWESNGQPENNYKTTPPVLDSDGPFFLYSKLTVDKSRWQQGNVFSCSVMHEALHNHYTQKSLSLSPGK
		0.104 µg/mL and 1.04 nM	0.73							sRAGE-Ig fusion protein, sample 1 fraction 2 (S1F2), 2-glycan species from untreated CHO cells (Fc fusion, pE1; two of the three N-linked sites (N2, N58, N288) occupied; the filing cannot tell which, RP-HPLC fraction; also called 2-Glycan only) QNITARIGEPLVLKCKGAPKKPPQRLEWKLNTGRTEAWKVLSPQGGGPWDSVARVLPNGSLFLPAVGIQDEGIFRCQAMNRNGKETKSNYRVRVYQIPGKPEIVDSASELTAGVPNKVGTCVSEGSYPAGTLSWHLDGKPLVPNEKGVSVKEQTRRHPETGLFTLQSELMVTPAPGGDPRPTFSCSFSPGLPRHRALRTAPIQPRVWEPVPLEEVQLVVEPEGGAVAPPSVFLFPPKPKDTLMISRTPEVTCVVVDVSHEDPEVKFNWYVDGVEVHNAKTKPREEQYNSTYRVVSVLTVLHQDWLNGKEYKCKVSNKALPAPIEKTISKAKGQPREPQVYTLPPSRDELTKNQVSLTCLVKGFYPSDIAVEWESNGQPENNYKTTPPVLDSDGPFFLYSKLTVDKSRWQQGNVFSCSVMHEALHNHYTQKSLSLSPGK
295	151	0.061 µg/mL and 0.61 nM	0.82	~3	~1.5					sRAGE-Ig fusion protein, sample S2 (from CHO cells treated with tunicamycin, unfractionated) (Fc fusion, pE1; N-linked sites N2, N58, N288: mixture 3-Glycan = 42%, 2-Glycan = 16%, 0-Glycan = 31%, Cells treated with 5 µg/mL tunicamycin for 3 days; also called S2 = TMYCN (treated with tunicamycin)) QNITARIGEPLVLKCKGAPKKPPQRLEWKLNTGRTEAWKVLSPQGGGPWDSVARVLPNGSLFLPAVGIQDEGIFRCQAMNRNGKETKSNYRVRVYQIPGKPEIVDSASELTAGVPNKVGTCVSEGSYPAGTLSWHLDGKPLVPNEKGVSVKEQTRRHPETGLFTLQSELMVTPAPGGDPRPTFSCSFSPGLPRHRALRTAPIQPRVWEPVPLEEVQLVVEPEGGAVAPPSVFLFPPKPKDTLMISRTPEVTCVVVDVSHEDPEVKFNWYVDGVEVHNAKTKPREEQYNSTYRVVSVLTVLHQDWLNGKEYKCKVSNKALPAPIEKTISKAKGQPREPQVYTLPPSRDELTKNQVSLTCLVKGFYPSDIAVEWESNGQPENNYKTTPPVLDSDGPFFLYSKLTVDKSRWQQGNVFSCSVMHEALHNHYTQKSLSLSPGK
529	295	0.034 µg/mL and 0.34 nM	0.42			5	10	3	6	sRAGE-Ig fusion protein, sample 2 fraction 3 (S2F3), 0-glycan (aglycosylated) species from tunicamycin treated CHO cells (Fc fusion, pyroglutamic acid (pE) at the N-terminus; no glycan at N2, N58 or N288; mixture with or without C-terminal lysine, RP-HPLC fraction; its mass agrees with the theoretical mass of the unglycosylated fusion protein; also called 0-Glycan only; aglycosylated variant) QNITARIGEPLVLKCKGAPKKPPQRLEWKLNTGRTEAWKVLSPQGGGPWDSVARVLPNGSLFLPAVGIQDEGIFRCQAMNRNGKETKSNYRVRVYQIPGKPEIVDSASELTAGVPNKVGTCVSEGSYPAGTLSWHLDGKPLVPNEKGVSVKEQTRRHPETGLFTLQSELMVTPAPGGDPRPTFSCSFSPGLPRHRALRTAPIQPRVWEPVPLEEVQLVVEPEGGAVAPPSVFLFPPKPKDTLMISRTPEVTCVVVDVSHEDPEVKFNWYVDGVEVHNAKTKPREEQYNSTYRVVSVLTVLHQDWLNGKEYKCKVSNKALPAPIEKTISKAKGQPREPQVYTLPPSRDELTKNQVSLTCLVKGFYPSDIAVEWESNGQPENNYKTTPPVLDSDGPFFLYSKLTVDKSRWQQGNVFSCSVMHEALHNHYTQKSLSLSPGK
		0.39 µg/mL and 3.9 nM	1.21							sRAGE-Ig fusion protein, sample 1 fraction 1 (S1F1), 3-glycan species from untreated CHO cells (Fc fusion, pE1; N-linked glycans at all three sites N2, N58, N288 (3-glycan only), RP-HPLC fraction exchanged into a stabilizing buffer before the ELISA; also called 3-Glycan only; fully occupied 3-glycan version) QNITARIGEPLVLKCKGAPKKPPQRLEWKLNTGRTEAWKVLSPQGGGPWDSVARVLPNGSLFLPAVGIQDEGIFRCQAMNRNGKETKSNYRVRVYQIPGKPEIVDSASELTAGVPNKVGTCVSEGSYPAGTLSWHLDGKPLVPNEKGVSVKEQTRRHPETGLFTLQSELMVTPAPGGDPRPTFSCSFSPGLPRHRALRTAPIQPRVWEPVPLEEVQLVVEPEGGAVAPPSVFLFPPKPKDTLMISRTPEVTCVVVDVSHEDPEVKFNWYVDGVEVHNAKTKPREEQYNSTYRVVSVLTVLHQDWLNGKEYKCKVSNKALPAPIEKTISKAKGQPREPQVYTLPPSRDELTKNQVSLTCLVKGFYPSDIAVEWESNGQPENNYKTTPPVLDSDGPFFLYSKLTVDKSRWQQGNVFSCSVMHEALHNHYTQKSLSLSPGK
		0.89 µg/mL and 8.9 nM	2.51							sRAGE-Ig fusion protein, sample 2 fraction 1 (S2F1), 3-glycan species from tunicamycin treated CHO cells (Fc fusion, pE1; N-linked glycans at all three sites N2, N58, N288 (3-glycan only), RP-HPLC fraction; also called 3-Glycan only) QNITARIGEPLVLKCKGAPKKPPQRLEWKLNTGRTEAWKVLSPQGGGPWDSVARVLPNGSLFLPAVGIQDEGIFRCQAMNRNGKETKSNYRVRVYQIPGKPEIVDSASELTAGVPNKVGTCVSEGSYPAGTLSWHLDGKPLVPNEKGVSVKEQTRRHPETGLFTLQSELMVTPAPGGDPRPTFSCSFSPGLPRHRALRTAPIQPRVWEPVPLEEVQLVVEPEGGAVAPPSVFLFPPKPKDTLMISRTPEVTCVVVDVSHEDPEVKFNWYVDGVEVHNAKTKPREEQYNSTYRVVSVLTVLHQDWLNGKEYKCKVSNKALPAPIEKTISKAKGQPREPQVYTLPPSRDELTKNQVSLTCLVKGFYPSDIAVEWESNGQPENNYKTTPPVLDSDGPFFLYSKLTVDKSRWQQGNVFSCSVMHEALHNHYTQKSLSLSPGK
